Publication PMC7076015, “An epilepsy-associated mutation in the nuclear import receptor KPNA7 reduces nuclear localization signal binding”

Legend:
MBP-CTCF(F4-F8) [1] = molecular target: T1, MBP-CTCF(F4-F8) (Homo sapiens, UniProt P49711 351-489); assay: fluorescence anisotropy; 100 uM ZnCl2; apparent KD, fit bounds fixed to WT; above top protein concentration 34.5 uM; 20 mM Tris pH 8, 200 mM KCl, 100 uM ZnCl2, 1 mM DTT, 25 C; 10 nM dsDNA, MBP-CTCF up to 34.5 uM; details: protein: recombinant; tags: MBP (N-terminal, pMAL-c2g); label: 6-FAM at 5' end of reverse strand; blunt
T1 sequence: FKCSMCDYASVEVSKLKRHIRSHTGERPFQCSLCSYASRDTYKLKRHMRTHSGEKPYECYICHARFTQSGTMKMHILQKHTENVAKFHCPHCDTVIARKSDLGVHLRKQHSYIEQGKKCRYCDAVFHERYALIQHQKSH

MBP-CTCF(F4-F8) [2] = molecular target: T1, MBP-CTCF(F4-F8); assay: fluorescence anisotropy; 100 uM ZnCl2; apparent KD; 20 mM Tris pH 8, 200 mM KCl, 100 uM ZnCl2, 1 mM DTT, 25 C; 10 nM dsDNA, MBP-CTCF up to 34.5 uM; details: protein: recombinant; tags: MBP (N-terminal, pMAL-c2g); label: 6-FAM at 5' end of reverse strand; blunt

B1: KPNA7 exon 7 CTCF motif c.1030G>C (dsDNA)
DNA 1: ATCCAGAAGCAGGCAG
DNA 2: CTGCCTGCTTCTGGAT
For B1, the Kd (MBP-CTCF(F4-F8) [1]) was 76 ± 16.2 µM.

B2: KPNA7 exon 7 CTCF motif WT (dsDNA)
DNA 1: ATCCAGAAGGAGGCAG
DNA 2: CTGCCTCCTTCTGGAT
Work on B2 yielded a Kd (MBP-CTCF(F4-F8) [2]) of 1.76 ± 0.084 µM.
